From the RNAGym collection of RNA variant scans (doi:10.1073/pnas.2313332121)

B1: TPR t1 (parent)
chain: GACCAAUCUGCCCUCAGAGCUCGAGAACAUCUUCGGAUGCAGAGGAGGCAGGCUUCGGUGGCGCGAUAGCGCCAACGUCCUCAACCUCCAAUGCAUCCCACCACAUGAUGAUGCCUGAAGAGCCUUGGUUUUUUG

Variants of: B1
Assay: polymerase ribozyme fitness, log enrichment relative to wild type (log ratio); higher = more active; in vitro selection for triplet polymerase activity
Procedure, shortened: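 One round of in vitro selection, in triplicate, was applied to PCR-built, transcribed mutant libraries of each subunit of a heterodimeric triplet polymerase ribozyme. The steps were annealing with a biotinylated primer, partner subunit and triplets, incubation frozen at −7 °C, gel excision of extended constructs, streptavidin-bead capture and RT-PCR. Fitness is the logarithm, base 2, of genotype enrichment over wild-type enrichment from inverse-variance-weighted replicate averages of Illumina-sequenced inputs and outputs, keeping genotypes with ≥10 input reads and ≥1 read per output.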

Variant | polymerase ribozyme fitness (log ratio)
C72A G77A C89U U106C | -1.11
C72G U78C C82U C94A | -0.768
G71A U78C C123U U131A | -0.879
G71U G77U C89A | -2.84
C72G G122A C123G | 1.99
C72G C115U U116C | -2.72
G71C C82G U109A C115A A118U C123A | -6.35
C72U A111C | 0.581
C72A C102A | -1.51
G71U G110C | -3.69
G71U G110A | -1.39
G71C G117A | -1.82
C72G C85U | -1.45
C72G C104A | -1.71
C72G U92C C94A | -3.47
G71A G135A | -1.21
C72U A84C | 0.0877
C72U A84G | -1.74
G71C C85A C101U A105C | -5.59
C72G C73A A121G | 0.168
C72U A84C C124U | 1.07
C72G U109G U125G | -4.97
G71U C82A C88A | -1.39
G71C U81A U109A | -6.73

Variant | polymerase ribozyme fitness (log ratio)
C72G C99U | -3.45
G71C A95U A111G C123U | -3.04
C72G G77C U78C A105G A119G | -2.47
C72G C101A U106A A119U C123U | -4.15
C72G C88U C123A | 0.243
C72G U106A U129A | -1.25
G71U C94G G113C U126G | -6.21
C72U C82A | -0.812
C72U C82U | -0.823
C72A U131A | -0.165
C72A A111G A121C | 1.27
C72A A95C | -0.926
G71C G113A A121G U133A | -1.06
C72U C79U C82A | -0.964
C72A C101U C124A G135A | 2.37
C72G A91C U96C C104A | -4.69
C72G U78C C79A G128C | -4.09
C72G C88G U96G | -2.68
C72G G127U | -1.1
C72G C88A G113U G127C | -5.08
C72G C86G U109A C114A G120C | -5.75
C72A U81A C94U C114A | -2.21
G71A U125A | -0.783
G71C G110C U126C | -7.04

Variant | polymerase ribozyme fitness (log ratio)
G71U U78G | -0.594
G71U U78C | -0.468
G71U C97A C115U A119G | -5.37
C72A C102A U125G | -2.01
C72A C89U U92G | -1.39
G71C C101A A121U U126G | -0.863
G71U G93C | -2.12
G71U G93A | -0.562
G71C A108G | -2.34
G71C C115A | -1.07
C72G C85U C102U C104A A105G | -7.34
C72A G120C | 1.31
G71A U78C | -0.782
C72G C80A U81G C86A | -6.59
C72G C101A U125G | -1.8
C72A U112A | 1.59
C72A C76A | -1.85
C72A C88A G120U | -0.866
G71A U96G | -1.35
G71U C101U C115A | -0.712
C72U C79A | -3.07
C72U A100U A108G | -1.87
G71C C123G | 0.627
G71U C99U C115A | -2.82

Variant | polymerase ribozyme fitness (log ratio)
C72G A108C | -5.06
G71U G77C C89U G128C | -4.14
C72U A121U | 1.5
C72U A121C | 1.6
C72U A121G | 0.744
C72G C88U A91C A118U G122U | -2.76
G71C C114A G127U | -5.17
C72A G122A | -0.72
G71U C98U | -2.33
C72G G113C U129A | -4.04
C72U C79U G122A | -0.67
G71U A121C | 1.43
G71U G120U | -0.136
G71U G120A | 0.754
C72A U92A A121U U125G | -1.7
G71U C104A U126C | -3.21
C72U C73A A83U U109A | -5.82
C72G C114G U130G U133A | -3.37
G71C U112G | -1.66
C72G C89A A90U | -2.32
C72A C114A | -1.85
G71U C114U | -1.41
C72A C88U G93C | -0.854
C72U C76U G122A | -1.21

Variant | polymerase ribozyme fitness (log ratio)
G71U U112G | -0.608
C72G A105G | -1.94
C72A G77C U92C G122A | -3.67
C72G U129C U130A | -1.89
G71C U87A | -2.35
G71U C114G U132A | -2.34
C72G G77U | -1.71
C72A U81C | -0.634
C72A G113C | -2.03
G71A U81C C88A C123G G135U | -0.881
C72G A111G G122A | -1.48
G71U C73G | -5.51
C72A U78G U133A | 0.102
C72U C76A C98U | -1.75
G71A G107A | -4.98
G71U C123A | 1.94
G71U C123U | 0.812
G71U C123G | 0.824
C72U A91G | -1.21
G71C G93C | -1.98
C72U C76A | -0.968
C72U C76G | -0.525
C72G G117C | -3.87
C72G C94G | -1.73

Variant | polymerase ribozyme fitness (log ratio)
G71C C79U | 0.303
C72U A100C | -1.3
C72U A100U | -0.925
G71U A75G | -0.135
C72G C82U U131G | -0.338
C72U C85A | -1.82
C72A A91G U92G G113C | -2.41
C72A C115A G135A | -0.346
C72U C80A | -5.24
C72U C80U | -1.08
G71C U81A G120U | -1.99
C72A C94A | -0.415
C72G U78C G113A | -1.93
G71C C94A G113C | -4.44
C72A U125C | -1.51
C72A U125A | -0.026
C72A U78A G110C | -4.71
C72G G120U | 0.278
C72G G120C | 0.587
C72G G120A | 0.223
G71C C82A A100U G120U | -1.87
G71C A121G | 0.226
G71C U87G C98U G113C | -4.17
C72U A83C C114U | -1.96

Variant | polymerase ribozyme fitness (log ratio)
C72U A83U A90G C114G | -1.45
G71C U92A A119U C124A | -3.83
C72A C80A A90G U125A | -3.65
C72A C76G U112G A119G | -0.512
G71C G113C | -2.72
C72A C80G C114A C123G U126A | -6.21
C72A C94G C102A C115U | -5.19
G71C C88U | -2.61
G71A G93U | -1.52
G71A G93A | -1.39
G71C C79U C101U | -0.546
C72U A119G | 0.547
G71U G93C G117C | -4.78
G71U G120A C123U U133G | -3.23
C72U A118U | 0.0221
C72A C115G | -2.29
G71C G135C | -1.39
C72A A103U | -4.58
C72A A111C C124A G127A | 0.235
C72A C102U C123A C124G | 0.156
G71A U129A | -1.76
G71U C80A U116G G117U A119U | -7.09
G71U C99G | -8.12
